From article PMC5224480 (Nucleic Acids Research, 2016)

Molecular target: T1, β subunit of Thermotoga maritima RNA polymerase (tmβ) (Thermotoga maritima, UniProt P29398 1-1263)
T1 sequence (looked up): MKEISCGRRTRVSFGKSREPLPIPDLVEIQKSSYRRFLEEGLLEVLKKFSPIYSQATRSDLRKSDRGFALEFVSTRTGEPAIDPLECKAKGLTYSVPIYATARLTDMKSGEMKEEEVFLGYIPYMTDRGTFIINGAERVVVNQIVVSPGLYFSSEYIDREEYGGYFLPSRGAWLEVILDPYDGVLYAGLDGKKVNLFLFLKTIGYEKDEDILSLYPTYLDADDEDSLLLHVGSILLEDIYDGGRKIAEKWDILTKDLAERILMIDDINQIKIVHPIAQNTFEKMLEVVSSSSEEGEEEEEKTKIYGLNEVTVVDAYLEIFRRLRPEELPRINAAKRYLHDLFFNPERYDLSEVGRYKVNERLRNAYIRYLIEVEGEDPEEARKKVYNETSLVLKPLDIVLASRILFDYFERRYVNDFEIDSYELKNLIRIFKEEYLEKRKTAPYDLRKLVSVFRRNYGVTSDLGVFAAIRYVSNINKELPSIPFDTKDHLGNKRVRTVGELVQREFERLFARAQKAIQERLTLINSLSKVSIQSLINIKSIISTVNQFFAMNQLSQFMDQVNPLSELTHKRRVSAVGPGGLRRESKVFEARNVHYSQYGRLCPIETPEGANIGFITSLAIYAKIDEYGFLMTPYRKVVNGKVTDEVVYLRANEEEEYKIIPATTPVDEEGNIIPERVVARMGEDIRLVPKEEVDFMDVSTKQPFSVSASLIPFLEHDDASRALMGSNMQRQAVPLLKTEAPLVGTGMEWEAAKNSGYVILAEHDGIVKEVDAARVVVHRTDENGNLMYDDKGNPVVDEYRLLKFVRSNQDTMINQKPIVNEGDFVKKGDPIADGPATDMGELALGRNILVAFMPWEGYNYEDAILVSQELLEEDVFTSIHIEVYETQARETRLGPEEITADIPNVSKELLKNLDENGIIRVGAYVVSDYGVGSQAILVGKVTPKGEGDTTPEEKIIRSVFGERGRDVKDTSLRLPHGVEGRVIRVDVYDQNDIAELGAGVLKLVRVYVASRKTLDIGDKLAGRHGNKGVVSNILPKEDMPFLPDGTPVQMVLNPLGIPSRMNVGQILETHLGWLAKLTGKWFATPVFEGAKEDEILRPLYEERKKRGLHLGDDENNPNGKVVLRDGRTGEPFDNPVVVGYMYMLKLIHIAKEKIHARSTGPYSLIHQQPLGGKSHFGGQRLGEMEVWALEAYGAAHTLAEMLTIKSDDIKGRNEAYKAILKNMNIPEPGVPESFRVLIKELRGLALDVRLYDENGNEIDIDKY
Test: NMR titration

B1: tmNusG-DII (residues 42-233 of tmNusG) (domain or fragment, Thermotoga maritima, UniProt P29397 42-233, looked up)
chain: EEVVLDATSPSERLILSPKAKLHVNNGKDVNKGDLIAEEPPIYARRSGVIVDVKNVRKIVVETIDRKYTKTYYIPESAGIEPGLRVGTKVKQGLPLSKNEEYICELDGKIVEIERMKKVVVQTPDGEQDVYYIPLDVFDRDRIKKGKEVKQGEMLAEARKFFAKVSGRVEVVDYSTRKEIRIYKTKRRKLFP
binding result: binds
